Source: the supplement of paper PMC11246515
± gives the standard deviation of the averaged measurements.

Assay: total protein half-life in vivo (active degradation + dilution); higher = more stable protein
[1] = E. coli NCM3722 delta-clpP delta-lon delta-hslV, growth: N-lim chemostat, doubling time 6 h
[2] = E. coli NCM3722 delta-clpP, growth: N-lim chemostat, doubling time 6 h
[3] = E. coli NCM3722 delta-hslV, growth: N-lim chemostat, doubling time 6 h
[4] = E. coli NCM3722 delta-lon, growth: N-lim chemostat, doubling time 6 h
[5] = E. coli NCM3722 delta-smpB, growth: N-lim chemostat, doubling time 6 h
[6] = wild type E. coli NCM3722, growth: C-lim chemostat, doubling time 3 h
[7] = wild type E. coli NCM3722, growth: C-lim chemostat, doubling time 6 h
[8] = wild type E. coli NCM3722, growth: C-lim chemostat, doubling time 12 h
[9] = wild type E. coli NCM3722, growth: N-lim chemostat, doubling time 6 h
[10] = wild type E. coli NCM3722, growth: N-lim chemostat, doubling time 12 h
[11] = wild type E. coli NCM3722, growth: P-lim chemostat, doubling time 6 h
[12] = wild type E. coli NCM3722, growth: P-lim chemostat, doubling time 12 h

MSAIENFDAHTPMMQQYLRLKAQHPEILLFYRMGDFYELFYDDAKRASQLLDISLTKRGASAGEPIPMAGIPYHAVENYLAKLVNQGESVAICEQIGDPATSKGPVERKVVRIVTPGTISDEALLQERQDNLLAAIWQDSKGFGYATLDISSGRFRLSEPADRETMAAELQRTNPAELLYAEDFAEMSLIEGRRGLRRRPLWEFEIDTARQQLNLQFGTRDLVGFGVENAPRGLCAAGCLLQYAKDTQRTTLPHIRSITMEREQDSIIMDAATRRNLEITQNLAGGAENTLASVLDCTVTPMGSRMLKRWLHMPVRDTRVLLERQQTIGALQDFTAGLQPVLRQVGDLERILARLALRTARPRDLARMRHAFQQLPELRAQLETVDSAPVQALREKMGEFAELRDLLERAIIDTPPVLVRDGGVIASGYNEELDEWRALADGATDYLERLEVRERERTGLDTLKVGFNAVHGYYIQISRGQSHLAPINYMRRQTLKNAERYIIPELKEYEDKVLTSKGKALALEKQLYEELFDLLLPHLEALQQSASALAELDVLVNLAERAYTLNYTCPTFIDKPGIRITEGRHPVVEQVLNEPFIANPLNLSPQRRMLIITGPNMGGKSTYMRQTALIALMAYIGSYVPAQKVEIGPIDRIFTRVGAADDLASGRSTFMVEMTETANILHNATEYSLVLMDEIGRGTSTYDGLSLAWACAENLANKIKALTLFATHYFELTQLPEKMEGVANVHLDALEHGDTIAFMHSVQDGAASKSYGLAVAALAGVPKEVIKRARQKLRELESISPNAAATQVDGTQMSLLSVPEETSPAVEALENLDPDSLTPRQALEWIYRLKSLV
total protein half-life in vivo [1]: 5.91 ± 0.07 h | total protein half-life in vivo [2]: 5.059 ± 0.028 h | total protein half-life in vivo [3]: 3.51 ± 0.062 h | total protein half-life in vivo [4]: 3.99 ± 0.046 h | total protein half-life in vivo [5]: 3.329 ± 0.022 h | total protein half-life in vivo [6]: 2.84 ± 0.36 h | total protein half-life in vivo [7]: 4.96 ± 0.41 h | total protein half-life in vivo [8]: 9.15 ± 1.4 h | total protein half-life in vivo [9]: 3.7765 ± 0.0035 h | total protein half-life in vivo [10]: 5.56 ± 0.91 h | total protein half-life in vivo [11]: 4.78 ± 0.42 h | total protein half-life in vivo [12]: 7.5 ± 0.22 h

MSAIEVKNLVKKFHGQTVLHGIDLEVKPGEVVAIIGPSGSGKTTLLRSINLLEQPEAGTITVGDITIDTARSLSQQKSLIRQLRQHVGFVFQNFNLFPHRTVLENIIEGPVIVKGEPKEEATARARELLAKVGLAGKETSYPRRLSGGQQQRVAIARALAMRPEVILFDEPTSALDPELVGEVLNTIRQLAQEKRTMVIVTHEMSFARDVADRAIFMDQGRIVEQGAAKALFADPEQPRTRQFLEKFLLQ
total protein half-life in vivo [2]: 5.314 ± 0.015 h | total protein half-life in vivo [3]: 5.44 ± 0.48 h | total protein half-life in vivo [4]: 6.65 ± 1.8 h | total protein half-life in vivo [5]: 5.38 ± 0.14 h | total protein half-life in vivo [6]: 3.11 ± 0.18 h | total protein half-life in vivo [7]: 5.25 ± 0.71 h | total protein half-life in vivo [8]: 10.2 ± 1.1 h | total protein half-life in vivo [9]: 6.41 ± 1.5 h | total protein half-life in vivo [10]: 9.13 ± 1.8 h | total protein half-life in vivo [11]: 5.16 ± 0.33 h | total protein half-life in vivo [12]: 12.2 ± 1.3 h

MSANAETQTPQQPVKKSGKRKRLLLLLTLLFIIIAVAIGIYWFLVLRHFEETDDAYVAGNQIQIMSQVSGSVTKVWADNTDFVKEGDVLVTLDPTDARQAFEKAKTALASSVRQTHQLMINSKQLQANIEVQKIALAKAQSDYNRRVPLGNANLIGREELQHARDAVTSAQAQLDVAIQQYNANQAMILGTKLEDQPAVQQAATEVRNAWLALERTRIISPMTGYVSRRAVQPGAQISPTTPLMAVVPATNMWVDANFKETQIANMRIGQPVTITTDIYGDDVKYTGKVVGLDMGTGSAFSLLPAQNATGNWIKVVQRLPVRIELDQKQLEQYPLRIGLSTLVSVNTTNRDGQVLANKVRSTPVAVSTAREISLAPVNKLIDDIVKANAG
total protein half-life in vivo [1]: 6.17 ± 0.42 h | total protein half-life in vivo [2]: 6.38 ± 0.53 h | total protein half-life in vivo [3]: 6.57 ± 0.12 h | total protein half-life in vivo [4]: 6.37 ± 0.58 h | total protein half-life in vivo [5]: 6.1 ± 0.26 h | total protein half-life in vivo [6]: 2.99 ± 0.1 h | total protein half-life in vivo [7]: 6.37 ± 0.2 h | total protein half-life in vivo [8]: 13.5 ± 1.8 h | total protein half-life in vivo [9]: 6.17 ± 0.1 h | total protein half-life in vivo [10]: 12 ± 0.35 h | total protein half-life in vivo [11]: 6.47 ± 0.29 h | total protein half-life in vivo [12]: 13.6 ± 2.7 h

MSANTEAQGSGRGLEAMKWVVVVALLLVAIVGNYLYRDIMLPLRALAVVILIAAAGGVALLTTKGKATVAFAREARTEVRKVIWPTRQETLHTTLIVAAVTAVMSLILWGLDGILVRLVSFITGLRF [P0AG96]
total protein half-life in vivo [1]: 4.72 h | total protein half-life in vivo [2]: 3.93 h | total protein half-life in vivo [3]: 4.78 ± 0.21 h | total protein half-life in vivo [4]: 4.6239 ± 0.0021 h | total protein half-life in vivo [5]: 4.69 ± 0.097 h | total protein half-life in vivo [6]: 2.81 ± 0.067 h | total protein half-life in vivo [7]: 5.11 ± 0.16 h | total protein half-life in vivo [8]: 9.61 h | total protein half-life in vivo [9]: 4.48 ± 0.26 h | total protein half-life in vivo [10]: 8.61 ± 1.6 h | total protein half-life in vivo [11]: 4.43 h | total protein half-life in vivo [12]: 8.75 ± 1.2 h

MSAQPVDIQIFGRSLRVNCPPDQRDALNQAADDLNQRLQDLKERTRVTNTEQLVFIAALNISYELAQEKAKTRDYAASMEQRIRMLQQTIEQALLEQGRITEKTNQNFE [P0ADS2]
total protein half-life in vivo [2]: > 8 h | total protein half-life in vivo [3]: 6.14 ± 0.47 h | total protein half-life in vivo [4]: 6.82 ± 0.47 h | total protein half-life in vivo [5]: 5.21 ± 0.4 h | total protein half-life in vivo [6]: 3.87 h | total protein half-life in vivo [7]: 6.05 ± 0.48 h | total protein half-life in vivo [8]: 10.5 h | total protein half-life in vivo [9]: 4.5 ± 0.25 h | total protein half-life in vivo [10]: 9.14 ± 1.6 h | total protein half-life in vivo [11]: 5.16 ± 0.74 h | total protein half-life in vivo [12]: 10.8 ± 1 h

MSASLAILTIGIVPMQEVLPLLTEYIDEDNISHHSLLGKLSREEVMAEYAPEAGEDTILTLLNDNQLAHVSRRKVERDLQGVVEVLDNQGYDVILLMSTANISSMTARNTIFLEPSRILPPLVSSIVEDHQVGVIVPVEEMLPVQAQKWQILQKSPVFSLGNPIHDSEQKIIDAGKELLAKGADVIMLDCLGFHQRHRDLLQKQLDVPVLLSNVLIARLAAELLV [P0AE28]
total protein half-life in vivo [1]: 3.97 h | total protein half-life in vivo [2]: 2.28 h | total protein half-life in vivo [5]: 1.41 h | total protein half-life in vivo [6]: 2.32 ± 0.053 h | total protein half-life in vivo [7]: 3.15 ± 0.55 h | total protein half-life in vivo [8]: 3.7 h | total protein half-life in vivo [9]: 1.67 ± 0.018 h | total protein half-life in vivo [12]: 7.89 h
